The target of assay [1] is T1, human MSLN-His-Avi (human, UniProt Q13421 296-598, single biotin (BirA) in the biotinylated form).
T1 construct: Monomeric, made in HEK293-6E; Used both immobilised and in solution; also called hMSLN-His-Avi; biotinylated hMSLN-His-Avi
Nature of the assay: SPR as Example 4.1 (about 40 RU instead of 100), MSLN in solution.

For assay [2], the target named is T1, human MSLN-His-Avi. Nature of the assay: ratio of the two SPR KD.
In assay [3] the target is T1, human MSLN-His-Avi. Nature of the assay: SPR as Example 4.1 (about 40 RU instead of 100), MSLN immobilised.
The target of assay [4] is T1, human MSLN-His-Avi. Nature of the assay: SPR (Biacore), hMSLN-His-Avi immobilised at 100 RU, mAb injected. The procedure: (§1) Human MSLN-His-Avi was immobilised on flow cell 2 on a CM5 Series S BIAcore sensor chip (GE Healthcare, BR100530) using an amine coupling kit (GE Healthcare, BR10050) to approximately 200 response units (RU). Flow cell 1 was left blank for subtraction. HEK293-6E supernatants or purified proteins were adjusted with HBS-EP+(GE Healthcare) to approximately 50 nM anti-MSLN mAb per sample. Samples were injected over flow cell 1 and 2 for 2.5 min at 30 μl/min and then allowed to dissociate in HBS-EP buffer for 2.5 min. Regeneration was achieved by injecting 10 mM glycine pH 1.5 (GE Healthcare, BR100354) for 30 seconds at a rate of 30 μl/min. Subtracted data (flow cell 2−flow cell 1) were analysed using BIAevaluation 3.2 Software (GE Healthcare).
(§2) For each bin described in 2.1.3, the binding kinetics were determined using the same method as described in section 2.1.2, except that human or cyno MSLN-His-Avi was immobilised at 50 or 100 RU. Clones were tested at a concentration range of 81 nM to 0.33 nM in 3-fold dilutions.

Assay [5] has as its target T1, human MSLN-His-Avi. The assay can be described thus: SPR (Biacore), hMSLN-His-Avi immobilised at 50 RU, mAb injected. The procedure:
as §1, §2

The target of assay [6] is T2, cell surface human mesothelin (MSLN) (human, UniProt Q13421 296-598).
T2 construct: whole, on cells; also called cell surface MSLN
The assay can be described thus: flow cytometry, NCI-H226 cells (n = 3). As for the experimental part: (§3) Briefly, NCI-H226 cells (ATCC CRL-5826) were harvested from T175 cell culture flasks using StemPro Accutase (Gibco, A11105-01). Cells were centrifuged at 1200 rpm for 3 min and resuspended in ice cold FACS buffer made up of DPBS (Life Technologies, 14190169) and 1% BSA (Sigma-Aldrich, A7906) at 2×10⁶ cells/ml and 50 μl per well was seeded in a 96-well V-bottom plate (Costar, 3894). All mAbs tested were diluted in FACS buffer in 120 μl at a concentration range of 0.01-200 nM (4-fold dilutions). The NCI-H226 cells were then centrifuged, supernatant removed and cells resuspended in 100 μl of each mAb dilution and incubated at 4° C. for 45 min. Cells were washed twice by centrifugation with 150 μl FACS buffer, resuspended in 100 μl containing goat anti-human IgG (γ-chain specific) F(ab′)2 fragment-R-Phycoerythrin antibody (Sigma, P8047) diluted 1:1000 in FACS buffer and incubated at 4° C. for 45 min. The cells were washed once with 150 μl FACS buffer and then with 150 μl DPBS, resuspended in 150 μl DPBS containing DAPI (Biotium, 40043) at 1:10.000 and read on the BDCantoll or iQue (Intellicyt). Data was analysed using FlowJo v10 to determine the signal geometric mean for PE for live cells in each well.

The target in assay [7] is T2, cell surface human mesothelin (MSLN). The assay can be described thus: flow cytometry, NCI-H226 cells + 20 nM soluble MSLN. The procedure: as §3, with “Cells” for “Briefly, NCI-H226 cells (ATCC CRL-5826) were harvested from T175 cell culture flasks using StemPro Accutase (Gibco, A11105-01). Cells”
(§4) Cell binding assays using OVCAR-3 cells were performed similarly to the assays described in section 2.4. The effect of the presence of soluble MSLN was tested by pre-incubating the antibodies in the presence or absence of soluble MSLN before mixing with cells and determining if the pre-incubation affected binding to MSLN on the cell surface. […] 60 μl from each well was then added to either FACS buffer alone or to FACS buffer containing 60 μl of 40 nM recombinant hMSLN (R&D systems, 3265-MS-050) (to give a final concentration of 20 nM hMSLN) and pre-incubated at room temperature for 1 hour before 100 μl was added to the cells. Bound antibody was detected using goat anti-human anti-Fcγ Alexa-Fluor 488 (Jackson Immunoresearch, 109-546-098).
(§5) The method used was exactly as described in section 3.1.4.
Background: A flow cytometer gives signals particle by particle.

Assay [8] has as its target T1, human MSLN-His-Avi. The assay can be described thus: SPR (Biacore), MSLN immobilised, mAb^2 injected. As for the experimental part:
as §1
(§6) Binding of the selected anti-MSLN clones in mAb² format, to recombinant human and cyno MSLN-His-Avi antigen was measured by SPR using a Biacore T200 processing unit (GE Healthcare). As previously described, it was desirable to bind more strongly to immobilised antigen than to soluble antigen. To assess the binding properties of the clones, binding kinetics to immobilised MSLN antigen were determined as described in section 2.1.2 and compared to the kinetics obtained when MSLN antigens in solution bound to captured clones.
On the technique in general: Surface plasmon resonance follows binding to a sensor surface in real time, without labels.

In assay [9] the target is T1, human MSLN-His-Avi. Nature of the assay: SPR (Biacore), mAb^2 captured on Protein G, MSLN in solution injected. As for the experimental part: as §6
(§7) For the capture experiments, clones in mAb² format were captured using a BIAcore sensor series S chip Protein G (GE Healthcare, 29179315). mAb² diluted in HBS-EP buffer (GE Healthcare, BR100188) containing 900 mM […] at 1 μg/ml, were injected individually on flow cell 2, 3 and 4 at 30 μl/min to achieve a response of approximately 100 RU. G1-AA/HeID1.3 was captured on flow cell 1. The recombinant human and cyno MSLN-His-Avi (section 1.1), diluted in HBS-EP buffer containing 900 mM […], were injected on flow cell 1, 2, 3 or 4 as appropriate at a concentration range of 1000 nM to 0.051 nM with 3-fold dilutions for 5 minutes at 70 μl/min and then allowed to dissociate in buffer for 5 minutes. Regeneration was achieved by injecting 10 mM glycine pH1.5 (GE Healthcare, BR100354) and surfactant P20 (GE Healthcare, BR-1000-54) for 20 seconds at a rate of 30 μl/min. Subtracted data (flow cell 2−flow cell 1, flow cell 3−flow cell 1, or flow cell 4−flow cell 1) were analysed using BIAevaluation 3.2 Software (GE Healthcare) to identify binding using the model 1:1 binding, local Rmax and with refractive index (RI) constant 0.

Assay [10] concerns the target T3, cynomolgus MSLN-His-Avi (cynomolgus, single biotin (BirA) in the biotinylated form).
T3 construct: Monomeric, made in HEK293-6E; also called cMSLN-His-Avi; cyno MSLN-His-Avi
T3 chain: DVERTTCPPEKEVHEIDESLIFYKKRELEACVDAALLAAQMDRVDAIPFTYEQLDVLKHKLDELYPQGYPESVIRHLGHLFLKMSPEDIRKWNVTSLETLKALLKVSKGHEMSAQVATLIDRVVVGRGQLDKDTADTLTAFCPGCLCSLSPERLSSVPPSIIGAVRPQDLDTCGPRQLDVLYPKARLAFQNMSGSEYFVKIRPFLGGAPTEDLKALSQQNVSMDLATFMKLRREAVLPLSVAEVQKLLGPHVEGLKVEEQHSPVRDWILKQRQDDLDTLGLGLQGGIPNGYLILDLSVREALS
Described as above. The procedure:
as §6, §7

Assay [11] has as its target T1, human MSLN-His-Avi. The assay can be described thus: ratio of the two SPR KD. The procedure: as §1, §6
as §7, with “μl/min.” for “μl/min. Subtracted data (flow cell 2−flow cell 1, flow cell 3−flow cell 1, or flow cell 4−flow cell 1) were analysed using BIAevaluation 3.2 Software (GE Healthcare) to identify binding using the model 1:1 binding, local Rmax and with refractive index (RI) constant 0.”
The source holds these as a separate data set.

The target of assay [12] is T2, cell surface human mesothelin (MSLN). Nature of the assay: flow cytometry, NCI-H226 cells. The procedure: as §3, with “Cells” for “Briefly, NCI-H226 cells (ATCC CRL-5826) were harvested from T175 cell culture flasks using StemPro Accutase (Gibco, A11105-01). Cells”
as §4, §5

Substitutions are numbered along the chain they refer to. Read-outs that look alike come from different tables or passages of the source.

From US20220267421A1 (INVOX PHARMA, published 2022) come the findings set out here.

As usually defined, the Kd is the equilibrium constant for the complex coming apart. For orientation: EC50 means the concentration needed to bring the measured effect to its halfway point.

T2 sequence (Q13421 other isoform, or with tags, fused parts or gaps limits assumed): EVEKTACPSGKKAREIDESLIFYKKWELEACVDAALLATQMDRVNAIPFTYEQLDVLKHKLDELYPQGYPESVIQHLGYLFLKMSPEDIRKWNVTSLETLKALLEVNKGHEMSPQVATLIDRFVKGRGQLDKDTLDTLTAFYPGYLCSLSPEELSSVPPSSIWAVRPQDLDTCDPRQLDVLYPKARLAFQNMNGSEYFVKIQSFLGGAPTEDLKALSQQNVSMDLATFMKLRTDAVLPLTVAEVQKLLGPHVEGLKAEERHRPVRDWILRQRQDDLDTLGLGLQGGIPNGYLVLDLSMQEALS
T1 sequence (Q13421 other isoform, or with tags, fused parts or gaps): as the sequence (Q13421 other isoform, or with tags, fused parts or gaps limits assumed) above

B1: FS28-256-274 (in CD137 mAb^2 format) (bispecific antibody, V domains shown)
VH: EVQLLESGGGLVQPGGSLRLSCAASGFTFTHTYMSWVRQAPGKGLEWVSTISPTYSTTNYADSVKGRFTISRDNNKNTLYLQMNSLRAEDTAVYYCARYNAYHAALDYWGQGTLVTVSS
VL: EIVLTQSPGTLSLSPGERATLSCRASQSVSSSYLAWYQQKPGQAPRLLIYGASSRATGIPDRFSGSGSGTDFTLTISRLEPEDFAVYYCQQTVPYPYTFGQGTKVEIK
As to B1, the Kd in assay [1] was determined as 55.9 nM; in assay [3], 19.8 nM. Also, the “Ratio of KD in solution/immobilised for human MSLN-His-Avi” value (“Ratio of KD in solution/immobilised” below) in assay [2] was found to be 2.8.

B2: G1-AA/FS28-256 (antibody, human IgG1, kappa, L234A L235A, V domains shown)
VH: B1 VH with H31N, T50N, N75S, A101S, H103Q, A104G, A105G
VL: EIVLTQSPGTLSLSPGERATLSCRASQSVSSSYLAWYQQKPGQAPRLLIYGASSRATGIPDRFSGSGSGTDFTLTISRLEPEDFAVYYCQQSYYYPITFGQGTKVEIKR
notes: IgG1 LALA
In turn, B2 displayed a Kd in assay [4] of 23.2 nM. In addition, the Kd in assay [5] was determined as 26.2 nM. Also, in assay [6], a half-maximal effect (EC50) was put at 33.1 nM and the “Emax (MFI signal)” value came out at 4250 MFI.

B3: FS28-256-272 (in CD137 mAb^2 format) (bispecific antibody, V domains shown)
VH: B1 VH with T50H
VL: B1 VL
notes: Position 55 is IMGT numbering, not the count on the entry
Turning to B3, the equilibrium dissociation constant (Kd) is 7.6 nM in [1] and 10.7 nM in [3]. Also, the “Ratio of KD in solution/immobilised” value in [2] came out at 0.7.

B4: FS28-256-027 (in CD137 mAb^2 format, Table 6) (bispecific antibody, V domains shown)
VH: B1 VH with T50N
VL: B1 VL
Turning to B4, the dissociation constant Kd stood at 3.2 nM in assay [1] and 4.7 nM in assay [3]. Moreover, the “Ratio of KD in solution/immobilised” value in assay [2] came to 0.68.

B5: FS22-053-008-AA/FS28-256-027 mAb^2 (bispecific antibody, human IgG1, kappa, L234A L235A, V domains shown)
VH: B1 VH with T50N
VL: B2 VL with S92T, Y93V, Y94P, I97Y
As to B5, the EC50 in assay [7] came out at 21.8 nM; in assay [12] it was 3.93 nM. The “Emax (MFI)” value in [7] turned out to be 964000 MFI; in assay [12] it was 987000 MFI. Besides, the Kd in assay [8] was 1.1 nM; in [9], 6 nM; in assay [10], 0.7 nM. Besides, the “Ratio of KD in solution/immobilised” value in [11] was 5.3.

B6: FS28-256-273 (in CD137 mAb^2 format) (bispecific antibody, V domains shown)
VH: B1 VH with T50S
VL: B1 VL
Take B6: the figures for the dissociation constant (Kd) in assay [1] and in assay [3] were 7.4 nM and 6 nM, respectively. Also, the “Ratio of KD in solution/immobilised” value in [2] was 1.2.
